# Measurements published in US20070060518A1 (MANNKIND, published 2007).
# Where two headings read alike, the source gives them in different places. Square brackets hold non-standard residues; d marks the D form. Ends that are not written are not given here. Phe(4-NO2) = N[C@@H](Cc1ccc([N+](=O)[O-])cc1)C(=O)O; Phe(4-F) = N[C@@H](Cc1ccc(F)cc1)C(=O)O; Phg = N[C@H](C(=O)O)c1ccccc1; Nle = CCCC[C@H](N)C(=O)O; Nva = CCC[C@H](N)C(=O)O; Abu = CC[C@H](N)C(=O)O
# Legend:
# HLA-A*0201 on T2 cells [1] = target: T1, HLA-A*0201 on T2 cells (human); experiment: T2 cell binding assay, flow cytometry
# T1 construct: whole, on cells; also called HLA-A2
# HLA-A*0201 on T2 cells [2] = target: T1, HLA-A*0201 on T2 cells; experiment: T2 cell binding assay, flow cytometry; remark: listed apart in the source
# [3] = target: T2, HLA-A*0201 class I monomer on avidin-coated plates (iTopia Epitope Discovery System) (human); experiment: iTopia assays (FIG. 19)
# T2 construct: Bought kit (Beckman Coulter); also called A0201 restricted MHC Class 1 molecules; MHC monomer
# Text: (§1) Avidin-coated microtiter plates containing class I monomer loaded with a so-called placeholder peptide were used to evaluate peptide binding, affinity and off-rate. […] Assay buffers, anti-MHC-FITC mAb and beta2-microglobulin and control peptides were also supplied with the kits. Binding Assay:
# This assay measures the ability of individual peptides to bind HLA molecules under standardized optimal binding conditions. Monomer-coated plates were first stripped, releasing the placeholder peptide and leaving only the MHC heavy chain bound to the plate. Test peptides were then introduced under optimal folding conditions, along with the anti-MHC-FITC mAb. […] The anti-MHC-FITC mAb binds preferentially to a refolded MHC complex. Therefore, the fluorescence intensity resulting from each peptide was related to the peptide's ability to form complex with MHC molecule. Each peptide's binding was evaluated relative to the positive control peptide provided in the kit, and the results were expressed “% binding”.
# [4] = target: T2, HLA-A*0201 class I monomer on …; experiment: iTopia off-rate assay (FIG. 20)
# Experimental: as §1
# (§2) The plates were then incubated on the allele-specific monomer plates at 37° C. The plates were measured at multiple time points (0, 0.5, 1, 1.5, 2, 4, 6 and 8 hrs) for relative fluorescence intensity. The time required for 50% of the peptide to dissociate from the MHC monomer is defined as the T1/2 value (hrs).
# [5] = target: T2, HLA-A*0201 class I monomer on …; experiment: iTopia off-rate assay (FIG. 21)
# Experimental: as §1, §2
# [6] = target: T2, HLA-A*0201 class I monomer on …; experiment: iTopia affinity assay (FIG. 19)
# Text: as §1
# HLA-A*0201 on T2 cells [7] = target: T1, HLA-A*0201 on T2 cells; experiment: T2 cell stability assay, flow cytometry
# HLA-A*0201 on T2 cells [8] = target: T1, HLA-A*0201 on T2 cells; experiment: T2 cell stability assay, flow cytometry; remark: listed apart in the source
# HLA-A*0201 on T2 cells [9] = target: T1, HLA-A*0201 on T2 cells; experiment: T2 cell binding assay, flow cytometry; remark: listed apart in the source
# HLA-A*0201 on T2 cells [10] = target: T1, HLA-A*0201 on T2 cells; experiment: T2 cell stability assay, flow cytometry; remark: listed apart in the source
binder,measurement,setting,value
"FVS[Nle]KIFYV (also called FVS(Nle)KIFYV) [SSX2 41-49 (K41F, A42V, E44Nle)]",EC50,HLA-A*0201 on T2 cells [1],13 µM
same,Relative affinity (1/RA),HLA-A*0201 on T2 cells [1],1.1
[Phe(4-NO2)]ASEKIFYV (also called para-nitrophenylalanine analog) [SSX2 41-49 (K41(Phe-4N02))],EC50,HLA-A*0201 on T2 cells [2],12.8 µM
same,Relative affinity (1/RA),HLA-A*0201 on T2 cells [2],1.1
"XLPSIPVHPI (sarkosine (Sar, N-methylglycine) at P1) [PSMA288-297 analog with Sar at P1]",binding result,[3],binds
[Abu]LPSIPVHPV [PSMA288-297 analog with Abu at P1 and Val at PΩ],binding result,[4],binds
ALPSIPVHPI [PSMA288-297 analog with Ala at P1],binding result,[3],binds
"AVPSIPVHPV [PSMA288-297 analog with Ala at P1, Val at P2 and Val at PΩ]",binding result,[5],binds
SLPSIPVHPI [PSMA288-297 analog with Ser at P1],binding result,[3],binds
GLPSIPVHLI [PSMA288-297 analog with Leu at PΩ-1],binding result,[3],binds
GLPSIPVHSI [PSMA288-297 analog with Ser at PΩ-1],binding result,[3],binds
"ALWSIPVHPV [PSMA288-297 analog with Ala at P1, Trp at P3 and Val at PΩ]",binding result,[5],binds
ALPSIPVHPV [PSMA288-297 analog with Ala at P1 and Val at PΩ],binding result,[4],binds
GQPSIPVHPI [PSMA288-297 analog with Gln at P2],binding result,[6],binds
GLPSIPVHPL [PSMA288-297 analog with Leu at PΩ],binding result,[6],binds
GLPSIPVHAI [PSMA288-297 analog with Ala at PΩ-1],binding result,[3],binds
GVPSIPVHPI [PSMA288-297 analog with Val at P2],binding result,[6],binds
GLPSIPVHTI [PSMA288-297 analog with Thr at PΩ-1],binding result,[3],binds
GIPSIPVHPI [PSMA288-297 analog with Ile at P2],binding result,[6],binds
XLPSIPVHPX (aminobutyric acid (Abu) at P1; norvaline (Nva) at PΩ (P10)) [PSMA288-297 analog with Abu at P1 and Nva at PΩ],binding result,[4],binds
"FVSEKIF[Phg]V (also called FVSEKIF(Phg)V) [SSX2 41-49 (K41F, A42V, Y48Phg)]",Stability (T1/2),HLA-A*0201 on T2 cells [7],> 24 h
same,EC50,HLA-A*0201 on T2 cells [1],5.85 µM
same,Relative affinity (1/RA),HLA-A*0201 on T2 cells [1],2.5
"FVSEKIFYV [SSX2 41-49 (K41F, A42V)]",Stability (T1/2),HLA-A*0201 on T2 cells [8],24 h
same,EC50,HLA-A*0201 on T2 cells [9],4.67 µM
same,Relative affinity (1/RA),HLA-A*0201 on T2 cells [9],3.1
"FVSEKLFTV [SSX2 41-49 (K41F, A42V, I46L, Y48T)]",Stability (T1/2),HLA-A*0201 on T2 cells [7],24 h
same,EC50,HLA-A*0201 on T2 cells [1],5.67 µM
same,Relative affinity (1/RA),HLA-A*0201 on T2 cells [1],2.6
"YMSEKIFYV [SSX2 41-49 (K41Y, A42M)]",Stability (T1/2),HLA-A*0201 on T2 cells [8],> 24 h
same,EC50,HLA-A*0201 on T2 cells [9],25 µM
same,Relative affinity (1/RA),HLA-A*0201 on T2 cells [9],0.6
"WLSEKIFYV [SSX2 41-49 (K41W, A42L)]",Stability (T1/2),HLA-A*0201 on T2 cells [8],> 24 h
same,EC50,HLA-A*0201 on T2 cells [9],4.47 µM
same,Relative affinity (1/RA),HLA-A*0201 on T2 cells [9],3.3
"FVSEKIFTV [SSX2 41-49 (K41F, A42V, Y48T)]",Stability (T1/2),HLA-A*0201 on T2 cells [7],24 h
same,EC50,HLA-A*0201 on T2 cells [1],3.9 µM
same,Relative affinity (1/RA),HLA-A*0201 on T2 cells [1],3.8
"WMSEKIFYV [SSX2 41-49 (K41W, A42M)]",Stability (T1/2),HLA-A*0201 on T2 cells [8],> 24 h
same,EC50,HLA-A*0201 on T2 cells [9],5.13 µM
same,Relative affinity (1/RA),HLA-A*0201 on T2 cells [9],2.9
"FVSEKIFSV [SSX2 41-49 (K41F, A42V, Y48S)]",Stability (T1/2),HLA-A*0201 on T2 cells [7],20 h
same,EC50,HLA-A*0201 on T2 cells [1],3.8 µM
same,Relative affinity (1/RA),HLA-A*0201 on T2 cells [1],3.9
"FVSQKIFYV [SSX2 41-49 (K41F, A42V, E44Q)]",EC50,HLA-A*0201 on T2 cells [1],40.8 µM
same,Relative affinity (1/RA),HLA-A*0201 on T2 cells [1],0.4
"WVSEKIFYV [SSX2 41-49 (K41W, A42V)]",Stability (T1/2),HLA-A*0201 on T2 cells [8],> 24 h
same,EC50,HLA-A*0201 on T2 cells [9],4.82 µM
same,Relative affinity (1/RA),HLA-A*0201 on T2 cells [9],3
"FISEKIFYV [SSX2 41-49 (K41F, A42I)]",Stability (T1/2),HLA-A*0201 on T2 cells [8],> 24 h
same,EC50,HLA-A*0201 on T2 cells [9],5.37 µM
same,Relative affinity (1/RA),HLA-A*0201 on T2 cells [9],2.7
"YLSEKIFYV [SSX2 41-49 (K41Y, A42L)]",Stability (T1/2),HLA-A*0201 on T2 cells [8],> 24 h
same,EC50,HLA-A*0201 on T2 cells [9],11.8 µM
same,Relative affinity (1/RA),HLA-A*0201 on T2 cells [9],1.2
"YVSEKIFYV [SSX2 41-49 (K41Y, A42V)]",Stability (T1/2),HLA-A*0201 on T2 cells [8],> 24 h
FASEKIFYV [SSX2 41-49 (K41F)],Stability (T1/2),HLA-A*0201 on T2 cells [10],> 24 h
same,EC50,HLA-A*0201 on T2 cells [2],9.55 µM
same,Relative affinity (1/RA),HLA-A*0201 on T2 cells [2],1.5
"FVSDKIFYV [SSX2 41-49 (K41F, A42V, E44D)]",EC50,HLA-A*0201 on T2 cells [1],13.2 µM
same,Relative affinity (1/RA),HLA-A*0201 on T2 cells [1],1.1
"FVSEKIFFV [SSX2 41-49 (K41F, A42V, Y48F)]",Stability (T1/2),HLA-A*0201 on T2 cells [7],20 h
same,EC50,HLA-A*0201 on T2 cells [1],8.8 µM
same,Relative affinity (1/RA),HLA-A*0201 on T2 cells [1],1.7
"FVSEKLFSA [SSX2 41-49 (K41F, A42V, I46L, Y48S, V49A)]",EC50,HLA-A*0201 on T2 cells [1],6.2 µM
same,Relative affinity (1/RA),HLA-A*0201 on T2 cells [1],2.4
"FVSEKLFYV [SSX2 41-49 (K41F, A42V, I46L)]",Stability (T1/2),HLA-A*0201 on T2 cells [7],24 h
same,EC50,HLA-A*0201 on T2 cells [1],7.8 µM
same,Relative affinity (1/RA),HLA-A*0201 on T2 cells [1],1.9
YASEKIFYV [SSX2 41-49 (K41Y)],Stability (T1/2),HLA-A*0201 on T2 cells [10],> 24 h
same,EC50,HLA-A*0201 on T2 cells [2],8.74 µM
same,Relative affinity (1/RA),HLA-A*0201 on T2 cells [2],1.7
"FVSEKVFYV [SSX2 41-49 (K41F, A42V, I46V)]",Stability (T1/2),HLA-A*0201 on T2 cells [7],24 h
"FVSEKLFTA [SSX2 41-49 (K41F, A42V, I46L, Y48T, V49A)]",Stability (T1/2),HLA-A*0201 on T2 cells [7],12 h
"FVSEKIFXV (4-fluorophenylalanine (Phe(4-F)) at position 48 (P8), also called FVSEKIF(Phe-4F)V) [SSX2 41-49 (K41F, A42V, Y48(Phe-4F))]",Stability (T1/2),HLA-A*0201 on T2 cells [7],24 h
same,EC50,HLA-A*0201 on T2 cells [1],10.6 µM
same,Relative affinity (1/RA),HLA-A*0201 on T2 cells [1],1.4
GXPSIPVHPV (norleucine (Nle) at P2) [PSMA288-297 analog with Nle at P2 and Val at PΩ],binding result,[4],binds
GLPSIPVHP[Nle] [PSMA288-297 analog with Nle at PΩ],binding result,[6],binds
"FVSEK[Nle]FYV (also called FVSEK(Nle)FYV) [SSX2 41-49 (K41F, A42V, I46Nle)]",EC50,HLA-A*0201 on T2 cells [1],12.8 µM
"FVSEK[Nva]FYV (also called FVSEK(Nva)FYV) [SSX2 41-49 (K41F, A42V, I46Nva)]",Stability (T1/2),HLA-A*0201 on T2 cells [7],> 24 h
same,EC50,HLA-A*0201 on T2 cells [1],6.21 µM
same,Relative affinity (1/RA),HLA-A*0201 on T2 cells [1],2.4
XASEKIFYV (β-(3-benzothienyl)-alanine at position 41 (P1)) [SSX2 41-49 (K41(b-(3-benzothienyl)Ala))],EC50,HLA-A*0201 on T2 cells [2],24.1 µM
same,Relative affinity (1/RA),HLA-A*0201 on T2 cells [2],0.6
"A[Nva]WSIPVHPI [PSMA288-297 analog with Ala at P1, Nva at P2 and Trp at P3]",binding result,[5],binds
"FVS[Nva]KIFYV (also called FVS(Nva)KIFYV) [SSX2 41-49 (K41F, A42V, E44Nva)]",Stability (T1/2),HLA-A*0201 on T2 cells [7],> 24 h
same,EC50,HLA-A*0201 on T2 cells [1],3.8 µM
same,Relative affinity (1/RA),HLA-A*0201 on T2 cells [1],3.9
ALPSIPVHP[Nva] [PSMA288-297 analog with Ala at P1 and Nva at PΩ],binding result,[4],binds
"ALWSIPVHP[Nva] [PSMA288-297 analog with Ala at P1, Trp at P3 and Nva at PΩ]",binding result,[5],binds
"AVPSIPVHP[Nva] [PSMA288-297 analog with Ala at P1, Val at P2 and Nva at PΩ]",binding result,[5],binds
GVPSIPVHP[Nva] [PSMA288-297 analog with Val at P2 and Nva at PΩ],binding result,[4],binds
[Phe(4-F)]ASEKIFYV [SSX2 41-49 (K41(Phe-4F))],Stability (T1/2),HLA-A*0201 on T2 cells [10],> 24 h
"A[Nle]WSIPVHPI [PSMA288-297 analog with Ala at P1, Nle at P2 and Trp at P3]",binding result,[5],binds
"XLPSIPVHPI (aminobutyric acid (Abu) at P1, also called G288Abu) [PSMA288-297 analog with Abu at P1]",binding result,[3],binds
G[Nva]PSIPVHPV [PSMA288-297 analog with Nva at P2 and Val at PΩ],binding result,[4],binds
G[Nva]PSIPVHPI [PSMA288-297 analog with Nva at P2],binding result,[6],binds
G[Abu]PSIPVHPI [PSMA288-297 analog with Abu at P2],binding result,[6],binds
"A[Nva]PSIPVHPV [PSMA288-297 analog with Ala at P1, Nva at P2 and Val at PΩ]",binding result,[5],binds
